Experiments:
[1] = target: T1, Human PD-1 (Sino Biological Inc., Beijing, China) (human, UniProt Q15116 25-167); assay: indirect ELISA, human PD-1 coated at 0.1 µg/mL
T1 construct: also called hPD-1
Procedure: The PBS buffer was aspirated from the 96-well plate, and the plate was washed once with PBST (PBS containing 0.05% Tween 20, pH 7.4). 200 μL of PBST/1% no-fat milk was added to each well and incubated at room temperature for 1 h for blocking. The blocking solution was removed and the plate was washed 3 times with PBST. […] The reaction solution was removed and the plate was washed 3 times with PBST. […] The plate was washed 3 times with PBST.

[2] = target: T2, human PD-1/His (Sino Biological Inc.) (human, UniProt Q15116 25-170); assay: BLI (Octet), human PD-1/His on Ni-NTA sensor, antibody 3.125-100 nM
T2 construct: extracellular domain; Bought protein; also called extracellular domain fragment of PD-1 protein containing His tag; not shown: His tag
T2 sequence (Q15116 25-170): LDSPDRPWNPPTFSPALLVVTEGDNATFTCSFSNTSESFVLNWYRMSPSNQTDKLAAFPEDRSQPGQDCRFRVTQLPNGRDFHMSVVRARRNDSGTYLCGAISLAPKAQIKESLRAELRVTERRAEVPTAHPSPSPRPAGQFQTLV
Excerpt: We used the bio-layer interferometry (BLI) technique to characterize the binding kinetics and affinity of purified murine monoclonal antibodies. According to the standard procedure, the Octet molecular interaction instrument (ForteBio Octet RED & QK system, PALL corp.) was operated. […] The antigen-antibody association and dissociation kinetics were then tracked.

[3] = target: T3, human ICOS/Fc (Sino Biological Inc.) (human, UniProt Q9Y6W8 21-141, limits assumed); assay: indirect ELISA, human ICOS/Fc coated at 0.1 µg/mL, HRP goat anti-mouse IgG
T3 construct: Bought protein; not shown: Fc
T3 sequence (looked up): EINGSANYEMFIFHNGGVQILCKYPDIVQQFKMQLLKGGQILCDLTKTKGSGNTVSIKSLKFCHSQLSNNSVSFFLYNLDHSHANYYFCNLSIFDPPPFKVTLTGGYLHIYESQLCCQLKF
Procedure: (§1) Human PD-1/His, human ICOS/Fc, human CTLA4/His, human CD28/Fc, cynomolgus monkey PD-1/Fc, and mouse PD-1/His (all from Sino Biological Inc., Beijing, China) were diluted with PBS buffer to 0.1 μg/mL, and added to the 96-well plate at a volume of 100 μL/well and placed at 16° C. for 16 to 20 h. The PBS buffer was aspirated from the 96-well plate, and the plate was washed once with PBST (PBS containing 0.05% Tween 20, pH 7.4). 200 μL of PBST/1% no-fat milk was added to each well and incubated at room temperature for 1 h for blocking. The blocking solution was removed and the plate was washed 3 times with PBST. 100 μL of the anti-PD-1 antibody to be tested was added to each well, and incubated at room temperature for 1.5 h. The reaction solution was removed and the plate was washed 3 times with PBST. 50 μL of the HRP-labeled goat anti-mouse IgG secondary antibody (The Jackson Laboratory) diluted (dilution ratio 1:4000) was added to each well. Incubated at room temperature for 1 h. The plate was washed 3 times with PBST. 100 μL of the TMB was added to each well and incubated at room temperature for 5-10 min 50 μL of 0.2 M sulfuric acid was added to each well to terminate the reaction. Absorbance values were read at dual wavelengths of 450/620 nm in a microplate reader.

[4] = target: T4, human CD28/Fc (Sino Biological Inc.) (human, UniProt P10747 19-152); assay: indirect ELISA, human CD28/Fc coated at 0.1 µg/mL, HRP goat anti-mouse IgG
T4 construct: Bought protein; not shown: Fc
Procedure: as §1

[5] = target: T5, mouse PD-1/His (Sino Biological Inc.) (mouse, UniProt Q02242 25-167); assay: indirect ELISA, mouse PD-1/His coated at 0.1 µg/mL, HRP goat anti-mouse IgG
T5 construct: Bought protein; not shown: His tag
T5 sequence (looked up): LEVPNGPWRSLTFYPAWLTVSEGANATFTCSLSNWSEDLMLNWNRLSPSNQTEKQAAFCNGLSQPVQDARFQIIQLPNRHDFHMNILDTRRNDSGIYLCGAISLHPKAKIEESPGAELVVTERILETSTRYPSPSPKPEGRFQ
Procedure: as §1

[6] = target: T2, human PD-1/His (Sino Biological Inc.); assay: indirect ELISA, human PD-1/His coated at 0.1 µg/mL, HRP goat anti-mouse IgG
Procedure: as §1

[7] = target: T6, human CTLA4/His (Sino Biological Inc.) (human, UniProt P16410 36-162, limits assumed); assay: indirect ELISA, human CTLA4/His coated at 0.1 µg/mL, HRP goat anti-mouse IgG
T6 construct: Bought protein; not shown: His tag
T6 sequence (P16410 36-162 limits assumed): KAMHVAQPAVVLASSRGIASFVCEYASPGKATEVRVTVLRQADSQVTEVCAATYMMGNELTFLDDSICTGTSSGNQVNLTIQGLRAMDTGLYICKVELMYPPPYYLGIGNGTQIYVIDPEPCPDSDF
Procedure: as §1

[8] = target: T7, cynomolgus monkey PD-1/Fc (Sino Biological Inc.) (cynomolgus monkey, UniProt B0LAJ3 25-170); assay: indirect ELISA, cynomolgus monkey PD-1/Fc coated at 0.1 µg/mL, HRP goat anti-mouse IgG
T7 construct: Bought protein
T7 sequence (B0LAJ3 entry or part of it limits assumed): as the sequence (Q15116 25-170) above, with D2E, P10A, V19L, T35A, Q75R, T144A counted along it
Procedure: as §1

T1 sequence (Q15116 25-167 limits assumed): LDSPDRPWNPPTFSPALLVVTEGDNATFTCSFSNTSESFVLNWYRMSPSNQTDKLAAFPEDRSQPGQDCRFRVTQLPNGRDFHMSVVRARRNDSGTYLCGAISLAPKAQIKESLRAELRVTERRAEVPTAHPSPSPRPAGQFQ

EC50 [1]: ~2 ng/mL
Kd [2]: < 1 pM
koff [2]: < 1e-07 s⁻¹
kon [2]: 109000 M⁻¹ s⁻¹
binding result [3]: no binding (tested: 10 µg/mL)
binding result [4]: no binding (tested: 10 µg/mL)
binding result [5]: no binding (tested: 10 µg/mL)
EC50 (read off the curve) [6]: ~4 ng/mL
binding result [7]: no binding (tested: 10 µg/mL)
EC50 (read off the curve) [8]: ~3 ng/mL
B1: murine monoclonal antibody AB12M1 (antibody, mouse IgG2b, V domains shown)
VH: EVKLVESGGGLVKPGGSLKLSCAASGFTFSSYGMSWVRQTPEKRLEWVATISGGGRDTYYPDSVKGRFTISRDNAKNNLYLQMSSLRSEDTALYYCARQKDTSWFVHWGQGTLVTVSA
VL: not shown
notes: subclass identified as mouse IgG2b (Kappa), purified from hybridoma supernatant; also called antibody of hybridoma clone #32

Source: US20190367617A1 (AMPSOURCE BIOPHARMA SHANGHAI, published 2019)
